From the supplement of paper PMC12764529
± gives the half width of the 95% confidence interval.

Test: folding stability dG unfold from trypsin proteolysis; higher = more stable
How it was run: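 Digests were run with trypsin and chymotrypsin at 11 concentrations in threefold dilutions, plus a no-protease condition, on designed mini-proteins in a PA-tagged cDNA display construct. The mini-proteins were under 80 residues, had no cysteine, and were kept only when AlphaFold2 dimer inter-PAE was above 15. After sequencing, Bayesian fitting of the counts gave K50, from which unfolding free energy was derived against a sequence-predicted unfolded-state K50 and a shared folded-state K50, per protease or combined.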

Going from “SAGGSAGGSAGGKEKKELYVVIKVDKNMTPEEIAEKLKKEFNVDKVEVEVREDGYLVVKVSAGGSAGGSAGG [r7_273_TrROS_Hall]” to “SAGGPKPGEKWIARTKEGLVPITLEGDKVTITDALTGKKTVIPIPGASLEEIKELLLSEPDYEVYPESAGGS [r16_583_JUSTAS]”, the “folding stability dG unfold” value falls from 1.03 ± 0.098 kcal/mol to -0.603 ± 0.37 kcal/mol.

Compared with “SAGGSAGGSAGGMVVRITTKDGRTITFPPGTSLEELRSLPADEITRVEVVEVEPVRVVEPSAGGSAGGSAGG [r7_190_TrROS_Hall]”, “SAGGSAGGSAGEVEIEITKVTENEDGSETLEMTIRDKDTGKTYKLTFNKDNGILTLEEEPSAGGSAGGSAGG [r11_991_TrROS_Hall]” is higher in “folding stability dG unfold” value: 1.45 ± 0.028 kcal/mol for the first, 1.93 ± 0.13 kcal/mol for the second.

First: SAGGETVTITIKVKGKEITVTFNKDTGKVTITDKDTGKTVTITLPAGEEPTLEELLEALKKLGFEIEPSAGG [r13_687_TrROS_Hall]
Second: SAGGSAGGSAGGSAPYPNTVVPTPLLSSVVTETTVEFFPDGTVVPVSTTTTVVLVYRLLSAGGSAGGSAGGS [r4_288_JUSTAS]
The “folding stability dG unfold” value of the first is higher: 4.11 ± 0.18 kcal/mol for the first, 3.54 ± 0.13 kcal/mol for the second.

Going from “SAGNIKIKEVEINDNTLTISYRMPGSGMWVKASIQADKGAIKIKSEYYPPKGKPIGEEEFTVPLDELKLSAG [r5_308_TrROS]” to “SAPILPDAVVSEKPSVSQLPGNSTLVTTTYTYPGGPTITKTTTYTVDPSTGKWTTTSSTTLTPEAAAAASAG [r14_842_JUSTAS]”, the “folding stability dG unfold” value falls from 0.979 ± 0.042 kcal/mol to 0.377 ± 0.041 kcal/mol.

First: SAGGSAGGSAGGDPKAKPKKYYLIDLNARLVGVEVDPETGELTVTYELEGATLTLRFEGSAGGSAGGSAGGS [r10_962_TrMRF]
Second: SAGPWMPYYVKVKFPDEEKLEKLVDEIQDESGFNMQVKKNPENGTRTVRVNMPPNIMEALKKHGFEIVSAGG [r19_306_TrROS]
The “folding stability dG unfold” value of the first is higher: 2.24 ± 0.1 kcal/mol for the first, 0.415 ± 0.11 kcal/mol for the second.

Compared with “SAGGSAGGSAGGTAEEIKEAIEELGYKVEVEVTDDAVKIRLELPNGEKFEFEIPKEALESAGGSAGGSAGGS [r10_1029_TrMRF]”, “SKTIYIPKNVPIDYILKVVKEAEKKGKPVKIVIETYNNPKVIEALKKAGYKVEIKEDKKKKITLIVVYPESA [r9_759_TrMRF]” is higher in “folding stability dG unfold” value: 2.3 ± 0.22 kcal/mol for the first, 3.33 ± 0.2 kcal/mol for the second.

First: SAGGSAGGSAGVVRTDDGREVTVRRTVRVEVRLEITITASEEDREKAAAALERLLRELGLSAGGSAGGSAGG [r17_501_TrROS_Hall]
Second: SAGGSTVAKKTTEKDPNSDTTTVTITFPETGVKLTVTVPPGGETTVTLNNGSPPTTLTLPLSVLKLLSAGGS [r8_238_JUSTAS]
The “folding stability dG unfold” value of the first is higher: 2.68 ± 0.24 kcal/mol for the first, 0.192 ± 0.077 kcal/mol for the second.

Going from “SAMEKVYIKVKFEVEGDPNGKEKKTIELIVENPDPNIGKEKLLEIAKEAVEKFAKENGYKVKISEVEIGSAG [r14_190_TrMRF]” to “SASLANGGLRVDVELEFDPETHEIRVKRLTLYRGDEPVATADATIAVPPAAPPPPPVVVLDPDVPFDNESAG [r14_571_TrMRF]”, the “folding stability dG unfold” value falls from 2.76 ± 0.29 kcal/mol to 0.687 ± 0.075 kcal/mol.

First: SAGGKKNKPKPKVKVKILSVTANPDPNTPGLLSVSVPVLIESDDEEFALALAKELAKLPNVKVVVLGGSAGG [r13_606_TrMRF]
Second: SAGGKKVIVIEGLTEEEILEKIKEEFPEPVEVIIRRPDGYVVKITVDAKTREIKKVEVVKVPPPEKPSAGGS [r8_225_TrROS_Hall]
The “folding stability dG unfold” value of the first is lower: 1.34 ± 0.023 kcal/mol for the first, 1.57 ± 0.15 kcal/mol for the second.

Compared with “SAGGLNIKFEILEVYPSPNGMRMIIVRMTIEYPVPVYRRDPNGEWRPMPPGQEPVTIEIDFYIMVTPSAGGS [r16_693_TrROS]”, “SAGPNLENLEIVEIKAEVLPDNSVIVPLKVRNDNGEEEEVWGRVGNGIVTLTYPNGFPAVAFIPPSAFSAGG [r19_84_TrMRF]” is lower in “folding stability dG unfold” value: 3.67 ± 0.11 kcal/mol for the first, 0.683 ± 0.033 kcal/mol for the second.

First: SAGGVTVSLSDPLSGNITTVPVAPNSTVTVTTSASLGGPNYTITTTVTVTLNGSTPVFTITSTVTPLSSAGG [r19_331_JUSTAS]
Second: SAGGSAGGSAGVITIPLDDINDLPPGFKVKPNNNSMMIEDGDNPIHIPPGEPVQIEPPDESAGGSAGGSAGG [r17_91_TrROS]
The “folding stability dG unfold” value of the first is higher: 3.08 ± 0.16 kcal/mol for the first, 0.65 ± 0.1 kcal/mol for the second.

Going from “SAGKKIDPEALAKRILKEFGLPEDAEVEVEEIENTYIARFPEATALFTIEDDEVTVFLAPARPEPELAGSAG [r5_190_TrMRF]” to “SMEVKIELTDEEIEAALEAGYEVEIEVRVVEVEYDEETDEVTVKVEVTITIRPVPPPPEVVVDEETGEILSA [r9_396_TrROS_Hall]”, the “folding stability dG unfold” value rises from 0.984 ± 0.11 kcal/mol to 2.1 ± 0.23 kcal/mol.

First: SAGGSASMSNVTSYVTVYKKPGVDDLYYKVRILAPSEPKVIEIPESEIPKYEKEGIKIEKVSEELLSAGGSA [r15_783_JUSTAS]
Second: SAGGKPRILLRRETAPDGRPYYVLQVLRRDPSDDGWTPVLEHRFETPEEAERYARELAEKTGYELVGSAGGS [r16_512_TrMRF]
The “folding stability dG unfold” value of the first is lower: 0.901 ± 0.36 kcal/mol for the first, 4 ± 0.11 kcal/mol for the second.

Compared with “SAGMVIKVKVKNKDGEELELVIEIPEEELPEELTEEELKELAKKLAEELAKEGKVEVVEVEIVEPEELSAGG [r19_27_TrROS_Hall]”, “SAGGSAGGSPETVTLTLTVTVKTVTLDPETGELTTTTHTVTLTLTLSKEDLEALLKSPELKKLSAGGSAGGS [r12_1015_TrROS_Hall]” is lower in “folding stability dG unfold” value: 2.39 ± 0.26 kcal/mol for the first, 1.84 ± 0.05 kcal/mol for the second.

Compared with “SAGGSAGGSMYVVRAVIRRPKAVPPPLAEEEIDIPVADREITAEEIARLFTPPGYELVRIEADSAGGSAGGS [r12_611_TrMRF]”, “SAGGSAGGSAMKVGEEVEVTVRIKVDGKEYEVKAKATLDEDGNVTLEVEIKAKEGKVEIEIESAGGSAGGSA [r18_428_TrROS_Hall]” is higher in “folding stability dG unfold” value: -0.177 ± 0.19 kcal/mol for the first, 3.42 ± 0.26 kcal/mol for the second.

First: SAGGSGMMLEEGVGVDPTTGELHRFTYLREPERPPVEVTVTTTTVVYTTPDGTTVTVTTTTTLEGGSAGGSA [r2_326_JUSTAS]
Second: SAGGSAGMMTDVEVEEYPGTGLVRITIRTPDAVVSGEGRFLSPELLEITISFPGAGKRTNELIPVRSAGGSA [r15_837_JUSTAS]
The “folding stability dG unfold” value of the first is lower: 0.671 ± 0.047 kcal/mol for the first, 1.23 ± 0.072 kcal/mol for the second.
